Molecules are shown by their SMILES.

Consider 6 compounds from patent US10947289B2, “Glyco-modified atrial natriuretic peptide” (priority 2013, dated 2021).

The data set in a line: Detection of test substance in rat plasma by LC-MS/MS (Test Example 3). The data set is classed as in vivo. The note with it: rat plasma, 100 nmol/kg i.v., LC-MS/MS; time at which the test substance was finally detected. The protocol:
Before the administration and 15, 30, 60, 90, 120, 180, and 240 minutes after the administration, blood was sampled (200 μL/sampling) over time from the jugular vein. The blood samples were immediately left on ice.
The collected blood samples were centrifuged at 5000 rpm at 4° C. for 5 minutes by use of a centrifuge (Sigma 4K15, rotor: Nr12130-H). The separated plasma samples were divided into two types (samples for PK measurement and for cGMP measurement) and stored at −80° C. until measurement.
An internal standard (20 μL (500 nM) of a stable isotope of hANP) and an acetic acid mixed solvent (AcOH/distilled water/DMSO=5/3/2, v/v/v) were added to 50 μL of each rat plasma sample prepared in (1) and then mixed therewith. The mixture was transferred to Amicon Ultra-0.5 50K (Millipore Corp., MA) and centrifuged at 14000 rpm at 15° C. for 30 minutes. The obtained filtrate was transferred to Amicon Ultra-0.5 3K (Millipore Corp., MA) and centrifuged again under the aforementioned conditions. The solution remaining on the filter was recovered and transferred to a 96-well deep well plate. The content of the test substance was measured by LC-MS/MS (LC: Shimadzu LC-10ADVP (Shimadzu Corp.), MS/MS: API 4000 QTrap (AB SCIEX)) to calculate the concentration in plasma. The time at which the test substance was finally detected is shown in the rightmost column of Table 2.
For `CC[C@H](C)[C@@H]1NC(=O)[C@H](CCCNC(=N)N)NC(=O)[C@H](CC(=O)O)NC(=O)[C@H](CCSC)NC(=O)[C@H](CCCNC(=N)N)NC(=O)CNC(=O)CNC(=O)[C@H](Cc2ccccc2)NC(=O)[C@@H](NC(=O)[C@H](CO)NC(=O)[C@H](CO)NC(=O)[C@H](CCCNC(=N)N)NC(=O)[C@H](CCCNC(=N)N)NC(=O)[C@H](CC(C)C)NC(=O)[C@H](CO)NC(=O)CCc2cn(CCO[C@@H]3O[C@H](CO)[C@@H](O[C@@H]4O[C@H](CO)[C@@H](O[C@@H]5O[C@H](CO[C@H]6O[C@H](CO)[C@@H](O)[C@H](O)[C@@H]6O[C@@H]6O[C@H](CO)[C@@H](O[C@@H]7O[C@H](CO[C@]8(C(=O)O)C[C@H](O)[C@@H](NC(C)=O)[C@H]([C@H](O)[C@H](O)CO)O8)[C@H](O)[C@H](O)[C@H]7O)[C@H](O)[C@H]6NC(C)=O)[C@@H](O)[C@H](O[C@H]6O[C@H](CO)[C@@H](O)[C@H](O)[C@@H]6O[C@@H]6O[C@H](CO)[C@@H](O[C@@H]7O[C@H](CO[C@]8(C(=O)O)C[C@H](O)[C@@H](NC(C)=O)[C@H]([C@H](O)[C@H](O)CO)O8)[C@H](O)[C@H](O)[C@H]7O)[C@H](O)[C@H]6NC(C)=O)[C@@H]5O)[C@H](O)[C@H]4NC(C)=O)[C@H](O)[C@H]3NC(C)=O)nn2)CSSC[C@@H](C(=O)N[C@@H](CC(N)=O)C(=O)N[C@@H](CO)C(=O)N[C@@H](Cc2ccccc2)C(=O)N[C@@H](CCCNC(=N)N)C(=O)N[C@@H](Cc2ccc(O)cc2)C(=O)O)NC(=O)CNC(=O)[C@H](CC(C)C)NC(=O)CNC(=O)[C@H](CO)NC(=O)[C@H](CCC(N)=O)NC(=O)[C@H](C)NC(=O)CNC1=O` [Compound 2-12, SG-triazole-hANP(1-28)], the “Maximum time of detection after administration” value (from here on “Maximum time of detection”) came to 1.5 h.

In the case of `CC[C@H](C)[C@@H]1NC(=O)[C@H](CCCNC(=N)N)NC(=O)[C@H](CC(=O)O)NC(=O)[C@H](CCSC)NC(=O)[C@H](CCCNC(=N)N)NC(=O)CNC(=O)CNC(=O)[C@H](Cc2ccccc2)NC(=O)[C@@H](NC(=O)[C@H](CO)NC(=O)[C@H](CO)NC(=O)[C@H](CCCNC(=N)N)NC(=O)[C@H](CCCNC(=N)N)NC(=O)[C@H](CC(C)C)NC(=O)[C@H](CO)NC(=O)CCOCCOCCOCCOCCOCCOCCOCCOCCOCCOCCOCCOCCNC(=O)CO[C@@H]2O[C@H](CO)[C@@H](O[C@@H]3O[C@H](CO)[C@@H](O[C@@H]4O[C@H](CO[C@H]5O[C@H](CO)[C@@H](O)[C@H](O)[C@@H]5O[C@@H]5O[C@H](CO)[C@@H](O[C@@H]6O[C@H](CO[C@]7(C(=O)O)C[C@H](O)[C@@H](NC(C)=O)[C@H]([C@H](O)[C@H](O)CO)O7)[C@H](O)[C@H](O)[C@H]6O)[C@H](O)[C@H]5NC(C)=O)[C@@H](O)[C@H](O[C@H]5O[C@H](CO)[C@@H](O)[C@H](O)[C@@H]5O[C@@H]5O[C@H](CO)[C@@H](O[C@@H]6O[C@H](CO[C@]7(C(=O)O)C[C@H](O)[C@@H](NC(C)=O)[C@H]([C@H](O)[C@H](O)CO)O7)[C@H](O)[C@H](O)[C@H]6O)[C@H](O)[C@H]5NC(C)=O)[C@@H]4O)[C@H](O)[C@H]3NC(C)=O)[C@H](O)[C@H]2NC(C)=O)CSSC[C@@H](C(=O)N[C@@H](CC(N)=O)C(=O)N[C@@H](CO)C(=O)N[C@@H](Cc2ccccc2)C(=O)N[C@@H](CCCNC(=N)N)C(=O)N[C@@H](Cc2ccc(O)cc2)C(=O)O)NC(=O)CNC(=O)[C@H](CC(C)C)NC(=O)CNC(=O)[C@H](CO)NC(=O)[C@H](CCC(N)=O)NC(=O)[C@H](C)NC(=O)CNC1=O` [Compound 2-30, SG-PEG(11)-hANP(1-28)], the “Maximum time of detection” value amounted to 4 h.

As for `CC[C@H](C)[C@@H]1NC(=O)[C@H](CCCNC(=N)N)NC(=O)[C@H](CC(=O)O)NC(=O)[C@H](CCSC)NC(=O)[C@H](CCCNC(=N)N)NC(=O)CNC(=O)CNC(=O)[C@H](Cc2ccccc2)NC(=O)[C@@H](NC(=O)[C@H](CO)NC(=O)[C@H](CO)NC(=O)[C@H](CCCNC(=N)N)NC(=O)[C@H](CCCNC(=N)N)NC(=O)[C@H](CC(C)C)NC(=O)[C@H](CO)NC(=O)CO[C@@H]2O[C@H](CO)[C@@H](O[C@@H]3O[C@H](CO)[C@@H](O[C@@H]4O[C@H](CO[C@H]5O[C@H](CO)[C@@H](O)[C@H](O)[C@@H]5O[C@@H]5O[C@H](CO)[C@@H](O)[C@H](O)[C@H]5NC(C)=O)[C@@H](O)[C@H](O[C@H]5O[C@H](CO)[C@@H](O)[C@H](O)[C@@H]5O[C@@H]5O[C@H](CO)[C@@H](O)[C@H](O)[C@H]5NC(C)=O)[C@@H]4O)[C@H](O)[C@H]3NC(C)=O)[C@H](O)[C@H]2NC(C)=O)CSSC[C@@H](C(=O)N[C@@H](CC(N)=O)C(=O)N[C@@H](CO)C(=O)N[C@@H](Cc2ccccc2)C(=O)N[C@@H](CCCNC(=N)N)C(=O)N[C@@H](Cc2ccc(O)cc2)C(=O)O)NC(=O)CNC(=O)[C@H](CC(C)C)NC(=O)CNC(=O)[C@H](CO)NC(=O)[C@H](CCC(N)=O)NC(=O)[C@H](C)NC(=O)CNC1=O` [Compound 2-11, AG(7)-hANP(1-28)], the “Maximum time of detection” value amounted to 2 h.

Consider `CC[C@H](C)[C@@H]1NC(=O)[C@H](CCCNC(=N)N)NC(=O)[C@H](CC(=O)O)NC(=O)[C@H](CCSC)NC(=O)[C@H](CCCNC(=N)N)NC(=O)CNC(=O)CNC(=O)[C@H](Cc2ccccc2)NC(=O)[C@@H](NC(=O)[C@H](CO)NC(=O)[C@H](CO)NC(=O)[C@H](CCCNC(=N)N)NC(=O)[C@H](CCCNC(=N)N)NC(=O)[C@H](CC(C)C)NC(=O)[C@H](CO)NC(=O)CO[C@@H]2O[C@H](CO)[C@@H](O[C@@H]3O[C@H](CO)[C@@H](O[C@@H]4O[C@H](CO[C@H]5O[C@H](CO)[C@@H](O)[C@H](O)[C@@H]5O[C@@H]5O[C@H](CO)[C@@H](O[C@@H]6O[C@H](CO[C@]7(C(=O)O)C[C@H](O)[C@@H](NC(C)=O)[C@H]([C@H](O)[C@H](O)CO)O7)[C@H](O)[C@H](O)[C@H]6O)[C@H](O)[C@H]5NC(C)=O)[C@@H](O)[C@H](O[C@H]5O[C@H](CO)[C@@H](O)[C@H](O)[C@@H]5O[C@@H]5O[C@H](CO)[C@@H](O[C@@H]6O[C@H](CO[C@]7(C(=O)O)C[C@H](O)[C@@H](NC(C)=O)[C@H]([C@H](O)[C@H](O)CO)O7)[C@H](O)[C@H](O)[C@H]6O)[C@H](O)[C@H]5NC(C)=O)[C@@H]4O)[C@H](O)[C@H]3NC(C)=O)[C@H](O)[C@H]2NC(C)=O)CSSC[C@@H](C(=O)N[C@@H](CC(N)=O)C(=O)N[C@@H](CO)C(=O)N[C@@H](Cc2ccccc2)C(=O)N[C@@H](CCCNC(=N)N)C(=O)N[C@@H](Cc2ccc(O)cc2)C(=O)O)NC(=O)CNC(=O)[C@H](CC(C)C)NC(=O)CNC(=O)[C@H](CO)NC(=O)[C@H](CCC(N)=O)NC(=O)[C@H](C)NC(=O)CNC1=O` [Compound 2-1, SG-hANP(1-28)], for which the “Maximum time of detection” value was found to be 3 h.

`CC[C@H](C)[C@@H]1NC(=O)[C@H](CCCNC(=N)N)NC(=O)[C@H](CC(=O)O)NC(=O)[C@H](CCSC)NC(=O)[C@H](CCCNC(=N)N)NC(=O)CNC(=O)CNC(=O)[C@H](Cc2ccccc2)NC(=O)[C@@H](NC(=O)[C@H](CO)NC(=O)[C@H](CO)NC(=O)[C@H](CCCNC(=N)N)NC(=O)[C@H](CCCNC(=N)N)NC(=O)[C@H](CC(C)C)NC(=O)[C@H](CO)NC(=O)CO[C@@H]2O[C@H](CO)[C@@H](O[C@@H]3O[C@H](CO)[C@@H](O[C@@H]4O[C@H](CO[C@H]5O[C@H](CO)[C@@H](O)[C@H](O)[C@@H]5O[C@@H]5O[C@H](CO)[C@@H](O[C@@H]6O[C@H](CO)[C@H](O)[C@H](O)[C@H]6O)[C@H](O)[C@H]5NC(C)=O)[C@@H](O)[C@H](O[C@H]5O[C@H](CO)[C@@H](O)[C@H](O)[C@@H]5O[C@@H]5O[C@H](CO)[C@@H](O[C@@H]6O[C@H](CO)[C@H](O)[C@H](O)[C@H]6O)[C@H](O)[C@H]5NC(C)=O)[C@@H]4O)[C@H](O)[C@H]3NC(C)=O)[C@H](O)[C@H]2NC(C)=O)CSSC[C@@H](C(=O)N[C@@H](CC(N)=O)C(=O)N[C@@H](CO)C(=O)N[C@@H](Cc2ccccc2)C(=O)N[C@@H](CCCNC(=N)N)C(=O)N[C@@H](Cc2ccc(O)cc2)C(=O)O)NC(=O)CNC(=O)[C@H](CC(C)C)NC(=O)CNC(=O)[C@H](CO)NC(=O)[C@H](CCC(N)=O)NC(=O)[C@H](C)NC(=O)CNC1=O` [Compound 2-10, AG(9)-hANP(1-28)]: the “Maximum time of detection” value is 1.5 h.

`CC[C@H](C)[C@@H]1NC(=O)[C@H](CCCNC(=N)N)NC(=O)[C@H](CC(=O)O)NC(=O)[C@H](CCSC)NC(=O)[C@H](CCCNC(=N)N)NC(=O)CNC(=O)CNC(=O)[C@H](Cc2ccccc2)NC(=O)[C@@H](NC(=O)[C@H](CO)NC(=O)[C@H](CO)NC(=O)[C@H](CCCNC(=N)N)NC(=O)[C@H](CCCNC(=N)N)NC(=O)[C@H](CC(C)C)NC(=O)[C@H](CO)NC(=O)CO[C@@H]2O[C@H](CO)[C@@H](O[C@@H]3O[C@H](CO)[C@@H](O[C@@H]4O[C@H](CO[C@H]5O[C@H](CO)[C@@H](O)[C@H](O)[C@@H]5O)[C@@H](O)[C@H](O[C@H]5O[C@H](CO)[C@@H](O)[C@H](O)[C@@H]5O)[C@@H]4O)[C@H](O)[C@H]3NC(C)=O)[C@H](O)[C@H]2NC(C)=O)CSSC[C@@H](C(=O)N[C@@H](CC(N)=O)C(=O)N[C@@H](CO)C(=O)N[C@@H](Cc2ccccc2)C(=O)N[C@@H](CCCNC(=N)N)C(=O)N[C@@H](Cc2ccc(O)cc2)C(=O)O)NC(=O)CNC(=O)[C@H](CC(C)C)NC(=O)CNC(=O)[C@H](CO)NC(=O)[C@H](CCC(N)=O)NC(=O)[C@H](C)NC(=O)CNC1=O` [Compound 2-26, AG(5)-hANP(1-28)]: the “Maximum time of detection” value turned out to be 2 h.
